Data on two molecules can be found in publication PMC13379313, “Clocked stepping of an artificial protein walker along a DNA track”.

The target in data set [1] is T1, MetJ (UniProt P0A8U6 2-105, Q45K).
T1 sequence: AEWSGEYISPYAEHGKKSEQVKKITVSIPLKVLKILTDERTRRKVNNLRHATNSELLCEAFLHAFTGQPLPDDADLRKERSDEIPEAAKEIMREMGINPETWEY
Nature of the data set: SPR; SAM; SPR: 1 mM SAM, 0.4 mM CoCl2 or 0.5 mM Trp, 100 ul/min, streptavidin CM5 chip; running buffer, pH and temperature not in material (DNA annealed in 25 mM HEPES pH 7.4, 200 mM KCl, 5 mM MgCl2). Particulars: protein: recombinant; tags: 8xHis, TEV-cleaved; chain copies: 2; label: 3' biotin on anchor strand S4 (SPR); 5' overhang 14 nt of strand 1, annealed to biotin anchor S4 in SPR. (Surface plasmon resonance follows binding to a sensor surface in real time, without labels.)

Data set [2] concerns the target TrpR (UniProt P0A881 2-108). Nature of the data set: SPR; Trp; SPR: 1 mM SAM, 0.4 mM CoCl2 or 0.5 mM Trp, 100 ul/min, streptavidin CM5 chip; running buffer, pH and temperature not in material (DNA annealed in 25 mM HEPES pH).

As a reminder, the Kd is a measure of binding affinity in units of concentration.

B1: metJ single site (NR139 top/bottom) (dsDNA)
DNA 1: CCACGCCCTAAGGTATGCTAGTTTGAGACGTCTCAAAACAGGA
DNA 2: TCCTGTTTTGAGACGTCTCAAACTAGCAT
Take B1: the Kd in data set [1] worked out at 4 ± 0.4 nM.

B2: trpR single site (NR206/NR207) (dsDNA)
DNA 1: CCACGCCCTAAGGTGAGCATAGTGGTACTCGCTAGCGAGTACCTCTGACTTC
DNA 2: GAAGTCAGAGGTACTCGCTAGCGAGTACCACTATGCTC
In the case of B2, binding in data set [2] was put at a Kd of 48 nM.
